Measurements taken from article PMC4827770 (Journal of molecular recognition : JMR, 2008).
Where two headings read alike, the source gives them in different places.

How the values were obtained:
[1] = biological target: T1, murine JAM-A on L929 (L) cells (murine (endogenous in L929 cells), UniProt O88792 27-300); assay: single molecule force spectroscopy
T1 sequence (looked up): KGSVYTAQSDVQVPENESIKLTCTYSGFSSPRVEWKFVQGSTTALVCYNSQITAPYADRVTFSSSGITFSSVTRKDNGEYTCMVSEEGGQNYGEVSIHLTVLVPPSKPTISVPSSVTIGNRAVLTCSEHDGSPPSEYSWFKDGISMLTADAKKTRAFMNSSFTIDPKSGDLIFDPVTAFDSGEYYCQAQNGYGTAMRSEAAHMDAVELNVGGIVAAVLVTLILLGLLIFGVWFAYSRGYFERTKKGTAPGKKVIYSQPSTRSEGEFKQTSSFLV

[2] = biological target: T1, murine JAM-A on L929 (L) cells; assay: single molecule force spectroscopy; remark: listed apart in the source

B1: reovirus attachment protein σ1 head domain plus a short region of the tail (residues 293–455) (domain or fragment)
chain: SPNLRYPIADVSGGIGMSPNYRFRQSMWIGIVSYSGSGLNWRVQVNSDIFIVDDYIHICLPAFDGFSIADGGDLSLNFVTGLLPPLLTGDTEPAFHNDVVTYGAQTVAIGLSSGGAPQYMSKNLWVEQWQDGVLRLRVEGGGSITHSNSKWPAMTVSYPRSFT
Q: Which koff [1] does the source give for B1 here?
A: Its koff is 0.067 ± 0.041 s⁻¹.

B2: chimeric murine JAM-A/Fc fusion protein (Fc fusion)
chain: KGSVYTAQSDVQVPENESIKLTCTYSGFSSPRVEWKFVQGSTTALVCYNSQITAPYADRVTFSSSGITFSSVTRKDNGEYTCMVSEEGGQNYGEVSIHLTVLVPPSKPTISVPSSVTIGNRAVLTCSEHDGSPPSEYSWFKDGISMLTADAKKTRAFMNSSFTIDPKSGDLIFDPVTAFDSGEYYCQAQNGYGTAMRSEAAHMDAVELNVGG
Q: With B2 as the binder, how does the koff [2] read?
A: Its koff is 0.688 ± 0.349 s⁻¹.
